From patent US20170044236A1 (GENERAL HOSPITAL, published 2017)

T1: wild-type integrin αVβ3 on cells (K562-αVβ3, M21, HEK293T) (human, UniProt P06756 31-1048; P05106 27-788)
T1 construct: also called WT αVβ3; cellular αVβ3
T1 chain 1: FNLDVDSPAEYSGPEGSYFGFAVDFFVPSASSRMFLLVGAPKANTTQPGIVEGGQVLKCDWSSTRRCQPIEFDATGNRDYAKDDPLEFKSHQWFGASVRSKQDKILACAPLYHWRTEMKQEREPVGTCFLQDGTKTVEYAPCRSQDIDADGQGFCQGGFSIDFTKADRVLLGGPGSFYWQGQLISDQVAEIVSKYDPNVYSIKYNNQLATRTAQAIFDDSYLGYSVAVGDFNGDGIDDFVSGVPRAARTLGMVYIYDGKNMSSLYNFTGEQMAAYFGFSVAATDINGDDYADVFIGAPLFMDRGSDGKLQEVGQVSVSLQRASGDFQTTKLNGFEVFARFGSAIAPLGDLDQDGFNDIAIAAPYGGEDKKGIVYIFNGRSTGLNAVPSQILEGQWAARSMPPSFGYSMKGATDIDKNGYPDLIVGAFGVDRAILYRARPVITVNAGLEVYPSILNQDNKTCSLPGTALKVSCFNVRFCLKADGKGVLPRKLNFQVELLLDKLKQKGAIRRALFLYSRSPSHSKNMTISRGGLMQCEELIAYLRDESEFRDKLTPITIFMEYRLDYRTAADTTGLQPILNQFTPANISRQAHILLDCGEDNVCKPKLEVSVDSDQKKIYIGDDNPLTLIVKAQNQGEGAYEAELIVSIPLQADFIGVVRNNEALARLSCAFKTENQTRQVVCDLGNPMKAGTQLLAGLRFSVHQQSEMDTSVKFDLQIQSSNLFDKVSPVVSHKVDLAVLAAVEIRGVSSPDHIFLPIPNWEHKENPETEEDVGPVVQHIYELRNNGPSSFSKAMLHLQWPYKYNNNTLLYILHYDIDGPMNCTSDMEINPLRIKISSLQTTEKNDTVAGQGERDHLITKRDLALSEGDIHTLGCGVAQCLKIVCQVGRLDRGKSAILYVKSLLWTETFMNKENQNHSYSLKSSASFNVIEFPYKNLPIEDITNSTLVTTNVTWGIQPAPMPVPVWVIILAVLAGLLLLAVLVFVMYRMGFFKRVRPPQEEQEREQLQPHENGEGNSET
T1 chain 2: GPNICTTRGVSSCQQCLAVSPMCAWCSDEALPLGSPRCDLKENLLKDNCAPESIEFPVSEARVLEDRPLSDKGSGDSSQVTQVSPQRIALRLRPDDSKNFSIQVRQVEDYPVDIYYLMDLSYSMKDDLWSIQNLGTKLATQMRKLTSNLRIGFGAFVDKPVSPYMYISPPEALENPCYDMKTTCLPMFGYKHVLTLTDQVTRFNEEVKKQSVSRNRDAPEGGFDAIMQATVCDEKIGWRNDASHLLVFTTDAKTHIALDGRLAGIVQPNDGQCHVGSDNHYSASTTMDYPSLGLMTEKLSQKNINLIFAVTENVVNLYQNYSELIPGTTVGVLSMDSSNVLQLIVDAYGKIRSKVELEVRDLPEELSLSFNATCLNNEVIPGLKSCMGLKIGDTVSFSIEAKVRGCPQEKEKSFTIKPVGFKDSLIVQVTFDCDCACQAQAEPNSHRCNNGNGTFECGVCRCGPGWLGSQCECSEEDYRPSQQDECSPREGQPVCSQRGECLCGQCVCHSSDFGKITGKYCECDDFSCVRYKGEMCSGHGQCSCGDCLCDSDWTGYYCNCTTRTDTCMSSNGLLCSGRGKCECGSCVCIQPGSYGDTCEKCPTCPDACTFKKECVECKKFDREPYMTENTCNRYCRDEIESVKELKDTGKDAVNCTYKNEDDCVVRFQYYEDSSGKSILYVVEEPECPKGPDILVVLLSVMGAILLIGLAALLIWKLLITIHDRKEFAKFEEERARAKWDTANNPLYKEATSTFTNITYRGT

T2: αVβ3(N339/S) on HEK293T cells (human, UniProt P06756 31-1048; P05106 27-788)
T2 construct: also called αVβ3^N/S; active αVβ3(N339/S)
T2 chain 1: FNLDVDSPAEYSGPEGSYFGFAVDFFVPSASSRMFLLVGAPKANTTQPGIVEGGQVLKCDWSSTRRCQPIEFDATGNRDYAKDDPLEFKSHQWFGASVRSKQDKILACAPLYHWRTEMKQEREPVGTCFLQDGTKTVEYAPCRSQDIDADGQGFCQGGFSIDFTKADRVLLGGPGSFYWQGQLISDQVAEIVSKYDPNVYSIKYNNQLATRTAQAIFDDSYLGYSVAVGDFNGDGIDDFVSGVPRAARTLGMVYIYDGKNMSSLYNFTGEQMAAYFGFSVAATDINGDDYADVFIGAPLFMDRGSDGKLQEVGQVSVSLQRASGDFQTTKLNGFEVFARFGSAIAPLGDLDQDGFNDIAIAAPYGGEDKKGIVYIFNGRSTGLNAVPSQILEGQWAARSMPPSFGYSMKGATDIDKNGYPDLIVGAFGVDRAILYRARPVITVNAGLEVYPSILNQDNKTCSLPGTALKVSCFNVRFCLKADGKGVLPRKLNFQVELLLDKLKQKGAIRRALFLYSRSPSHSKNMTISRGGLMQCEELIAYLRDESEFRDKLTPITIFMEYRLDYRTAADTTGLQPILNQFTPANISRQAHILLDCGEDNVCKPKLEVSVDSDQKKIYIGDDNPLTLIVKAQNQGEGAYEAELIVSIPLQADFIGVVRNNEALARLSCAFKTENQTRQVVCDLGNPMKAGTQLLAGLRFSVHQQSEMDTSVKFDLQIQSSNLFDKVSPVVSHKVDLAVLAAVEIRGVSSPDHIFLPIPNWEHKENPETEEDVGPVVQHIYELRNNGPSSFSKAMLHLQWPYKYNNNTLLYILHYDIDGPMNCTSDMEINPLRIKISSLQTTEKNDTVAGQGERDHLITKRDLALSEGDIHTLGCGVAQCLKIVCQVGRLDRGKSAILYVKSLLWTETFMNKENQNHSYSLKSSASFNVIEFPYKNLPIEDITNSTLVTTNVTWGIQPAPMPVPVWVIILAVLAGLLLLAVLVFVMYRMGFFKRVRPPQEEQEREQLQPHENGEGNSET
T2 chain 2: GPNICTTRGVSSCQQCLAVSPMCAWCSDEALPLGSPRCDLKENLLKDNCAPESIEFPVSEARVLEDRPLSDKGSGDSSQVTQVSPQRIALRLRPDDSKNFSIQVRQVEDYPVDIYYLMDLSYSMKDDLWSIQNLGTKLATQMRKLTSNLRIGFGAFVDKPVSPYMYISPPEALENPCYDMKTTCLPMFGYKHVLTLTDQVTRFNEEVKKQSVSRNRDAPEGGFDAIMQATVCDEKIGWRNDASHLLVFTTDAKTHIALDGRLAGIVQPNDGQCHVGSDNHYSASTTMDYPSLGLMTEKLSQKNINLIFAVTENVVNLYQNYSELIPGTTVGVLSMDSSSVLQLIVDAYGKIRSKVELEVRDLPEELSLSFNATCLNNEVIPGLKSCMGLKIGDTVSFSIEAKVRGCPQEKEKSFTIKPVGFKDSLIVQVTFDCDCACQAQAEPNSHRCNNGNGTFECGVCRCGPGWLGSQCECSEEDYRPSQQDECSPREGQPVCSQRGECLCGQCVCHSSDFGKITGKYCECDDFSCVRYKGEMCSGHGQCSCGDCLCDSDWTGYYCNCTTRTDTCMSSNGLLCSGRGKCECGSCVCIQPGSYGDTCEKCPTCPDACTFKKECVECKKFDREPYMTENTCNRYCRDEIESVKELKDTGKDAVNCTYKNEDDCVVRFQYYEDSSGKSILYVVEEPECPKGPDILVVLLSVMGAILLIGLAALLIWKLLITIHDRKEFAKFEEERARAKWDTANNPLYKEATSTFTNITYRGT


Key:
[1] = target: T1, wild-type integrin αVβ3 on cells …; test: flow cytometry, fluoresceinated fluid-phase FN10 on K562-αVβ3 cells
[2] = target: T2, αVβ3(N339/S) on HEK293T cells; test: flow cytometry, fluoresceinated fluid-phase FN10 on transfected HEK293T cells, Ca2+/Mg2+
[3] = target: T2, αVβ3(N339/S) on HEK293T cells; test: flow cytometry, fluorescein-tagged hFN10-G on cells

fold increase of binding (Mn2+ over Ca2+/Mg2+) [1]	fold increase of binding (N339/S over wild-type αVβ3) [2]	binding result [3]	Binder
10 fold	6 fold		wild-type 10th type-III RGD-domain of human fibronectin (wtFN10) (ligand, Expressed in bacteria with an N-terminal His tag (S1417-T1509) and a thrombin cleavage site; also called wild-type FN10) not shown
		no binding	hFN10-G (designed binder, Fluorescein-tagged in the assay; also called mhFN10) SDVPRDLEVVAATPTSLLISWDAPAVTVRYYRITYGETGGNSPVQEFTVPGSKSTATISGLKPGVDYTITVYAVTPGRGDWNEGSKPISINY
